One data set is described as follows: LIVE/DEAD staining. The conditions noted are these: glycan lost; control: parental PANC-1.
A further data set can be described thus: LC/MS. The conditions noted are these: glycan lost; control: parental PANC-1.
The next data set can be described thus: blot. Particulars: glycan lost; control: wild-type RRM1.
The nature of a further data set: soft agar colony assay. The conditions noted are these: glycan lost; control: parental PANC-1.
A short description of data set [1]: low-attachment sphere assay. Particulars: glycan lost; control: parental PANC-1.
Data set [2] can be described thus: γH2AX, 53BP1, RPA immunofluorescence foci. Particulars: glycan lost; control: parental PANC-1.
The nature of a further data set: Western blot and qPCR. The conditions noted are these: glycan lost; control: parental PANC-1. For orientation: A western blot detects proteins with antibodies after separation by electrophoresis.
Data set [3] can be described thus: nocodazole release, PI flow cytometry. The conditions noted are these: glycan lost; control: parental PANC-1.
Data set [4] is described as follows: XTT viability, 3-day gemcitabine. Particulars: glycan lost; control: parental PANC-1. (Tetrazolium assays rely on reduction of a dye to a coloured formazan, in cell work by metabolically active cells.)

B1: ribonucleotide reductase large subunit M1 (RRM1): RRM1-T734A (protein)
parent chain: MHVIKRDGRQERVMFDKITSRIQKLCYGLNMDFVDPAQITMKVIQGLYSGVTTVELDTLAAETAATLTTKHPDYAILAARIAVSNLHKETKKVFSDVMEDLYNYINPHNGKHSPMVAKSTLDIVLANKDRLNSAIIYDRDFSYNYFGFKTLERSYLLKINGKVAERPQHMLMRVSVGIHKEDIDAAIETYNLLSERWFTHASPTLFNAGTNRPQLSSCFLLSMKDDSIEGIYDTLKQCALISKSAGGIGVAVSCIRATGSYIAGTNGNSNGLVPMLRVYNNTARYVDQGGNKRPGAFAIYLEPWHLDIFEFLDLKKNTGKEEQRARDLFFALWIPDLFMKRVETNQDWSLMCPNECPGLDEVWGEEFEKLYASYEKQGRVRKVVKAQQLWYAIIESQTETGTPYMLYKDSCNRKSNQQNLGTIKCSNLCTEIVEYTSKDEVAVCNLASLALNMYVTSEHTYDFKKLAEVTKVVVRNLNKIIDINYYPVPEACLSNKRHRPIGIGVQGLADAFILMRYPFESAEAQLLNKQIFETIYYGALEASCDLAKEQGPYETYEGSPVSKGILQYDMWNVTPTDLWDWKVLKEKIAKYGIRNSLLIAPMPTASTAQILGNNESIEPYTSNIYTRRVLSGEFQIVNPHLLKDLTERGLWHEEMKNQIIACNGSIQSIPEIPDDLKQLYKTVWEISQKTVLKMAAERGAFIDQSQSLNIHIAEPNYGKLTSMHFYGWKQGLKTGMYYLRTRPAANPIQFTLNKEKLKDKEKVSKEEEEKERNTAAMVCSLENRDECLMCGS
Regarding B1, the “other: cell death” value in the data set “LIVE/DEAD staining” is reported as “no change”. The “other: cellular NTP pools” value in “LC/MS” is “decreases”. Besides, the “other: RRM1 serine/threonine phosphorylation” value in “blot” is given as “decreases”. Besides, the “other: colony formation” value in the data set “soft agar colony assay” is “decreases”. For the same protein, the “other: sphere formation” value in data set [1] is “decreases”. Also, the “other: DNA damage and replication stress foci” value in data set [2] is recorded as “increases”. Further, the “other: thymidine phosphorylase (TP) expression” value in the data set “Western blot and qPCR” is given as “decreases”. Moreover, the “other: S-phase duration” value in data set [3] was “increases”. Further, the “other: gemcitabine sensitivity” value in data set [4] is listed as “increases”.

Source of the values: paper PMC12086086.
